Measured values reported in patent US20140179896A1 (published 2014).
Where a chain is given by its changes, count along the chain named.

B1: 1′DelAl PR4 (designed binder)
chain: EVVAATPTSLLISWRHPHFPTRYYRITYGETGGNSPVQEFTVPLQPPTATISGLKPGVDYTITGYAVTVAQNDHELLTPISINYRT
notes: Del 1-8
B2: 2′Del B5 PR4 (designed binder)
chain: B1 chain with V69A, A70G, Q71R, N72H, L77I, T78I
notes: Del 1-8
B3: 3A2 PR3 (designed binder)
chain: B1 chain with V69W, A70S, D73N, H74R, L77F
notes: Del 1-8
B4: 2′DelH9 PR4 (designed binder)
chain: B1 chain with A70G, Q71W, N72S, D73G, L77F, T78V
notes: Del 1-8
B5: 2′Del H6 PR4 (designed binder)
chain: B1 chain with V69T, A70G, Q71H, N72H, L77I, T78I
notes: Del 1-8
B6: 3A3 PR3 (designed binder)
chain: B1 chain with V69L, Q71Y, D73G, H74R, L76I, L77I
notes: Del 1-8
B7: 2′DelB7 PR4 (designed binder)
chain: B1 chain with A70G, Q71Y, D73N, H74R
notes: Del 1-8
B8: 1′DelE6 PR4 (designed binder)
chain: B1 chain with V69L, H74R
notes: Del 1-8
B9: 2′Del A11 PR4 (designed binder)
chain: B1 chain with V69E, A70D, Q71I, N72R, D73V, H74L, E75W, L77N, P79T
notes: Del 1-8
B10: 2′DelC7 PR4 (designed binder)
chain: B1 chain with V69W, A70D, D73G, E75V
notes: Del 1-8
B11: 2′Del E5 PR4 (designed binder)
chain: B1 chain with V69E, A70G, Q71L, L77I, T78I
notes: Del 1-8
B12: 1′DelE7 PR4 (designed binder)
chain: B1 chain with D73G, L77F
notes: Del 1-8
B13: 1′Del G10 PR4 (designed binder)
chain: B1 chain with V69M, D73G, E75K, L77M
notes: Del 1-8
B14: 2′Del C8 PR4 (designed binder)
chain: B1 chain with V69T, Q71H, D73G
notes: Del 1-8
B15: 2′Del D3 PR4 (designed binder)
chain: B1 chain with V69S, A70G, Q71L, H74R, E75V, L77F, T78I
notes: Del 1-8
B16: 2′Del B3 PR4 (designed binder)
chain: B1 chain with V69D, Q71P, D73G, H74R, L77M, T78V
notes: Del 1-8
B17: 2′DelC3 PR4 (designed binder)
chain: B1 chain with V69W, D73G, H74R
notes: Del 1-8
B18: 3B5 PR3 (designed binder)
chain: B1 chain with V69F, A70G, D73G, E75A
notes: Del 1-8
B19: 2′Del C11 PR4 (designed binder)
chain: B1 chain with V69A, A70G, Q71L, D73E, T78I
notes: Del 1-8
B20: 2′DelA5 PR4 (designed binder)
chain: B1 chain with V69W, A70N, D73G, H74Q, L77F
notes: Del 1-8
B21: 2′Del G11 PR4 (designed binder)
chain: B1 chain with V69G, A70G, N72M, D73N, H74R, E75V, L77M
notes: Del 1-8
B22: 2′Del F1 PR4 (designed binder)
chain: B1 chain with V69R, A70D, N72Y, D73E
notes: Del 1-8
B23: 2′Del B4 PR4 (designed binder)
chain: B1 chain with V69S, A70G, Q71H, D73G, L76V, L77M
notes: Del 1-8
B24: 2′DelE4 PR4 (designed binder)
chain: B1 chain with A70H, Q71W, D73G, L77M
notes: Del 1-8
B25: 2′Del F7 PR4 (designed binder)
chain: B1 chain with V69L, A70G, Q71L, N72R, H74R, L77F, T78V
notes: Del 1-8
B26: 2′Del G9 PR4 (designed binder)
chain: B1 chain with A70E, D73G, H74R, L77I, T78I
notes: Del 1-8
B27: 1′DelF3 PR4 (designed binder)
chain: B1 chain with V69M, E75K, L77F
notes: Del 1-8
B28: 2′Del E3 PR4 (designed binder)
chain: B1 chain with V69L, A70G, Q71P, N72Y, D73E
notes: Del 1-8
B29: 2′Del C6 PR4 (designed binder)
chain: B1 chain with V69M, A70G, Q71F, N72M, D73A, L77M, T78V
notes: Del 1-8
B30: 2′Del A2 PR4 (designed binder)
chain: B1 chain with V69G, A70G, Q71R, D73G, E75T
notes: Del 1-8
B31: 2′Del F5 PR4 (designed binder)
chain: B1 chain with V69L, A70V, Q71H, H74R
notes: Del 1-8
B32: 1′DelD1 PR4 (designed binder)
chain: B1 chain with A70T
notes: Del 1-8
B33: 2′Del C5 PR4 (designed binder)
chain: B1 chain with V69P, A70G, Q71H, L77M, T78V
notes: Del 1-8
B34: 1′DelD2 PR4 (designed binder)
chain: B1 chain with Q71K
notes: Del 1-8
B35: 2′Del D10 PR4 (designed binder)
chain: B1 chain with V69L, Q71D, D73A, H74R
notes: Del 1-8
B36: 2′Del H5 PR4 (designed binder)
chain: B1 chain with V69L, A70G, Q71K, N72D, D73V, H74R
notes: Del 1-8
B37: 3C3 PR3 (designed binder)
chain: B1 chain with V69M, A70E, D73G, L77F
notes: Del 1-8
B38: 2′Del C1 PR4 (designed binder)
chain: B1 chain with V69A, A70G, Q71L, N72D, D73E, T78I
notes: Del 1-8
B39: 2′Del D1 PR4 (designed binder)
chain: B1 chain with V69L, A70E, H74R, E75V
notes: Del 1-8
B40: 2′Del D5 PR4 (designed binder)
chain: B1 chain with Q71W, E75M, L77M
notes: Del 1-8
B41: 2′Del F8 PR4 (designed binder)
chain: B1 chain with V69A, A70G, Q71P, N72G, D73A
notes: Del 1-8
B42: 2′DelH4 PR4 (designed binder)
chain: B1 chain with A70G, Q71P, D73E, H74R, E75M, L77M
notes: Del 1-8
B43: 2′Del H12 PR4 (designed binder)
chain: B1 chain with V69A, A70G, Q71G, D73G
notes: Del 1-8
B44: 2′Del E6 PR4 (designed binder)
chain: B1 chain with V69M, A70G, Q71K, D73G
notes: Del 1-8
B45: 2′Del F11 PR4 (designed binder)
chain: B1 chain with V69M, A70G, H74K, L77I
notes: Del 1-8
B46: 1′DelH12 PR4 (designed binder)
chain: B1 chain with D73E, H74R, L77F
notes: Del 1-8
B47: 1′DelE2 PR4 (designed binder)
chain: B1 chain with A70G
notes: Del 1-8
B48: 1′DelD5 PR4 (designed binder)
chain: B1 chain with A70G, D73H, L77F
notes: Del 1-8
B49: 2′DelG5 PR4 (designed binder)
chain: B1 chain with A70G, D73N
notes: Del 1-8
B50: 3B4 PR3 (designed binder)
chain: B1 chain with A70G, D73E
notes: Del 1-8
B51: 1′DelA2 PR4 (designed binder)
chain: B1 chain with D73G, E75Q, L77F
notes: Del 1-8
B52: 1′DelH10 PR4 (designed binder)
chain: B1 chain with V69F
notes: Del 1-8
B53: 1′DelH5 PR4 (designed binder)
chain: B1 chain with H74R, L77F
notes: Del 1-8
B54: 2′Del B2 PR4 (designed binder)
chain: B1 chain with V69T, A70G, Q71W, D73G, H74N, L77F
notes: Del 1-8

Molecular target: T1, human vascular endothelial growth factor receptor-2 Fc chimera (KDR-Fc) (human, UniProt P35968 20-764)
T1 construct: range 1-764; also called human VEGFR-2; VEGF-R2-Fc; not shown: human IgG1 Fc
Assay: radioactive equilibrium binding, 1 nM KDR-Fc
Method: To prepare ³⁵S-labeled binding proteins for analysis, mRNA was prepared as described above for RNA-protein fusion production but the linker ligation step was omitted. The mRNA was expressed using rabbit reticulocyte lysate translation kit (Ambion) in the presence of ³⁵S-labeled Met at 30° C. for 1 hour. Expressed protein was purified on M2-agarose Flag beads (Sigma) as described above. This procedure produced the encoded protein without the nucleic acid tail. In a direct binding assay, VEGF-R2-Fc fusions in concentrations ranging from 0 to 200 nM were added to a constant concentration of the purified protein (0.2 or 0.5 nM) and incubated at 30° C. for 1 hour in buffer B. The receptor-binder complexes were captured using Protein A magnetic beads for another 10 minutes at room temperature using a Kingfisher™ The beads were washed with six reaction volumes of buffer B. The protein was eluted from the beads with 100 μL of 0.1 M KOH. […] of the reaction mixture and elution were dried onto a LumaPlate-96 (Packard) and the amount of ³⁵S on the plate was measured using a TopCount NXT instrument (Packard). The amount of fibronectin-based scaffold protein bound to the target was estimated as a percent of radioactivity eluted from Protein A magnetic beads compare to radioactivity in the reaction mixture. Nonspecific binding of fibronectin-based scaffold proteins to the beads was determined by measuring binding in the absence of KDR-Fc and represented less than 1-2% of the input. Specific binding was obtained through subtraction of nonspecific binding from total binding. Data was analyzed using the GraphPad Prizm software (GraphPad Software, Inc, San Diego, Calif.), fitted using a one site, non-linear binding equation.

T1 sequence (P35968 20-764 limits assumed, change not shown, form in doubt): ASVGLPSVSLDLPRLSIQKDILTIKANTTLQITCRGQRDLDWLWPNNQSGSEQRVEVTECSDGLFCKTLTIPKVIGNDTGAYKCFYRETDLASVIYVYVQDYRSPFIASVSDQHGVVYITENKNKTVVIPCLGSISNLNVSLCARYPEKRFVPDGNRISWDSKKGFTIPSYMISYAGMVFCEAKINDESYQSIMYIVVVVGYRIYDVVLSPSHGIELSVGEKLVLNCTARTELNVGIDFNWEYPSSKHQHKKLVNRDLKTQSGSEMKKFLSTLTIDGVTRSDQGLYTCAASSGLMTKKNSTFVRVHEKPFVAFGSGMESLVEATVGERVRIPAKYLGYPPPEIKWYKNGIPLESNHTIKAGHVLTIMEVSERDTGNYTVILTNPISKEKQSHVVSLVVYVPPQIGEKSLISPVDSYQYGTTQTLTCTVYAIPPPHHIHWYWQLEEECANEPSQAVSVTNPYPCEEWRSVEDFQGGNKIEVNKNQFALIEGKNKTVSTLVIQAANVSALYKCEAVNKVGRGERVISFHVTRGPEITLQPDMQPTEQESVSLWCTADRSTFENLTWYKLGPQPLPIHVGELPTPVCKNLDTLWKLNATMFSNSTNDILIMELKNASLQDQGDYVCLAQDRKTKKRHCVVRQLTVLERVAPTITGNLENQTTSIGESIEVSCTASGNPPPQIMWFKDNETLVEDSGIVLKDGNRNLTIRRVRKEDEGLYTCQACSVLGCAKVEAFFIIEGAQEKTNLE

| Binding to 1 nM KDR, % [%] | Binder |
| --- | --- |
| 14 | B1 |
| 33 | B2 |
| 23 | B3 |
| 20 | B4 |
| 28 | B5 |
| 23 | B6 |
| 32 | B7 |
| 24 | B8 |
| 16 | B9 |
| 19 | B10 |
| 19 | B11 |
| 22 | B12 |
| 36 | B13 |
| 15 | B14 |
| 38 | B15 |
| 17 | B16 |
| 29 | B17 |
| 20 | B18 |
| 34 | B19 |
| 20 | B20 |
| 22 | B21 |
| 20 | B22 |
| 31 | B23 |
| 34 | B24 |
| 38 | B25 |
| 33 | B26 |
| 16 | B27 |

| Binding to 1 nM KDR, % [%] | Binder |
| --- | --- |
| 33 | B28 |
| 34 | B29 |
| 17 | B30 |
| 22 | B31 |
| 16 | B32 |
| 26 | B33 |
| 17 | B34 |
| 34 | B35 |
| 34 | B36 |
| 17 | B37 |
| 32 | B38 |
| 28 | B39 |
| 18 | B40 |
| 42 | B41 |
| 30 | B42 |
| 24 | B43 |
| 43 | B44 |
| 27 | B45 |
| 18 | B46 |
| 16 | B47 |
| 17 | B48 |
| 19 | B49 |
| 17 | B50 |
| 23 | B51 |
| 17 | B52 |
| 17 | B53 |
| 29 | B54 |
